Results on eight molecules are retold here after patent publication US20220281951A1 (ACCELERON PHARMA, published 2022).

First the molecules themselves.
B1: ActRIIb-hFc (R64, 24-131) (Fc fusion)
chain: AETRECIYYNANWELERTNQSGLERCEGEQDKRLHCYASWRNSSGTIELVKKGCWLDDFNCYDRQECVATEENPQVYFCCCEGNFCNERFTHLPEAGGPEVTYEPPPTGGGTHTCPPCPAPELLGGPSVFLFPPKPKDTLMISRTPEVTCVVVDVSHEDPEVKFNWYVDGVEVHNAKTKPREEQYNSTYRVVSVLTVLHQDWLNGKEYKCKVSNKALPVPIEKTISKAKGQPREPQVYTLPPSREEMTKNQVSLTCLVKGFYPSDIAVEWESNGQPENNYKTTPPVLDSDGSFFLYSKLTVDKSRWQQGNVFSCSVMHEALHNHYTQKSLSLSPGK
B2: ActRIIb-hFc (R64, 22-131) (Fc fusion)
chain: GEAETRECIYYNANWELERTNQSGLERCEGEQDKRLHCYASWRNSSGTIELVKKGCWLDDFNCYDRQECVATEENPQVYFCCCEGNFCNERFTHLPEAGGPEVTYEPPPTGGGTHTCPPCPAPELLGGPSVFLFPPKPKDTLMISRTPEVTCVVVDVSHEDPEVKFNWYVDGVEVHNAKTKPREEQYNSTYRVVSVLTVLHQDWLNGKEYKCKVSNKALPVPIEKTISKAKGQPREPQVYTLPPSREEMTKNQVSLTCLVKGFYPSDIAVEWESNGQPENNYKTTPPVLDSDGSFFLYSKLTVDKSRWQQGNVFSCSVMHEALHNHYTQKSLSLSPGK
B3: ActRIIb-hFc (R64, 21-131) (Fc fusion)
chain: RGEAETRECIYYNANWELERTNQSGLERCEGEQDKRLHCYASWRNSSGTIELVKKGCWLDDFNCYDRQECVATEENPQVYFCCCEGNFCNERFTHLPEAGGPEVTYEPPPTGGGTHTCPPCPAPELLGGPSVFLFPPKPKDTLMISRTPEVTCVVVDVSHEDPEVKFNWYVDGVEVHNAKTKPREEQYNSTYRVVSVLTVLHQDWLNGKEYKCKVSNKALPVPIEKTISKAKGQPREPQVYTLPPSREEMTKNQVSLTCLVKGFYPSDIAVEWESNGQPENNYKTTPPVLDSDGSFFLYSKLTVDKSRWQQGNVFSCSVMHEALHNHYTQKSLSLSPGK
B4: ActRIIb-hFc (R64, 20-131) (Fc fusion)
chain: GRGEAETRECIYYNANWELERTNQSGLERCEGEQDKRLHCYASWRNSSGTIELVKKGCWLDDFNCYDRQECVATEENPQVYFCCCEGNFCNERFTHLPEAGGPEVTYEPPPTGGGTHTCPPCPAPELLGGPSVFLFPPKPKDTLMISRTPEVTCVVVDVSHEDPEVKFNWYVDGVEVHNAKTKPREEQYNSTYRVVSVLTVLHQDWLNGKEYKCKVSNKALPVPIEKTISKAKGQPREPQVYTLPPSREEMTKNQVSLTCLVKGFYPSDIAVEWESNGQPENNYKTTPPVLDSDGSFFLYSKLTVDKSRWQQGNVFSCSVMHEALHNHYTQKSLSLSPGK
B5: ActRIIb-hFc (R64, 23-131) (Fc fusion)
chain: EAETRECIYYNANWELERTNQSGLERCEGEQDKRLHCYASWRNSSGTIELVKKGCWLDDFNCYDRQECVATEENPQVYFCCCEGNFCNERFTHLPEAGGPEVTYEPPPTGGGTHTCPPCPAPELLGGPSVFLFPPKPKDTLMISRTPEVTCVVVDVSHEDPEVKFNWYVDGVEVHNAKTKPREEQYNSTYRVVSVLTVLHQDWLNGKEYKCKVSNKALPVPIEKTISKAKGQPREPQVYTLPPSREEMTKNQVSLTCLVKGFYPSDIAVEWESNGQPENNYKTTPPVLDSDGSFFLYSKLTVDKSRWQQGNVFSCSVMHEALHNHYTQKSLSLSPGK
B6: ActRIIb-hFc (R64, 20-132) (Fc fusion)
chain: GRGEAETRECIYYNANWELERTNQSGLERCEGEQDKRLHCYASWRNSSGTIELVKKGCWLDDFNCYDRQECVATEENPQVYFCCCEGNFCNERFTHLPEAGGPEVTYEPPPTAGGGTHTCPPCPAPELLGGPSVFLFPPKPKDTLMISRTPEVTCVVVDVSHEDPEVKFNWYVDGVEVHNAKTKPREEQYNSTYRVVSVLTVLHQDWLNGKEYKCKVSNKALPVPIEKTISKAKGQPREPQVYTLPPSREEMTKNQVSLTCLVKGFYPSDIAVEWESNGQPENNYKTTPPVLDSDGSFFLYSKLTVDKSRWQQGNVFSCSVMHEALHNHYTQKSLSLSPGK
B7: ActRIIb-hFc (R64, 20-128) (Fc fusion)
chain: GRGEAETRECIYYNANWELERTNQSGLERCEGEQDKRLHCYASWRNSSGTIELVKKGCWLDDFNCYDRQECVATEENPQVYFCCCEGNFCNERFTHLPEAGGPEVTYEPGGGTHTCPPCPAPELLGGPSVFLFPPKPKDTLMISRTPEVTCVVVDVSHEDPEVKFNWYVDGVEVHNAKTKPREEQYNSTYRVVSVLTVLHQDWLNGKEYKCKVSNKALPVPIEKTISKAKGQPREPQVYTLPPSREEMTKNQVSLTCLVKGFYPSDIAVEWESNGQPENNYKTTPPVLDSDGSFFLYSKLTVDKSRWQQGNVFSCSVMHEALHNHYTQKSLSLSPGK
B8: ActRIIb-hFc (R64, 20-134) (Fc fusion)
chain: GRGEAETRECIYYNANWELERTNQSGLERCEGEQDKRLHCYASWRNSSGTIELVKKGCWLDDFNCYDRQECVATEENPQVYFCCCEGNFCNERFTHLPEAGGPEVTYEPPPTAPTGGGTHTCPPCPAPELLGGPSVFLFPPKPKDTLMISRTPEVTCVVVDVSHEDPEVKFNWYVDGVEVHNAKTKPREEQYNSTYRVVSVLTVLHQDWLNGKEYKCKVSNKALPVPIEKTISKAKGQPREPQVYTLPPSREEMTKNQVSLTCLVKGFYPSDIAVEWESNGQPENNYKTTPPVLDSDGSFFLYSKLTVDKSRWQQGNVFSCSVMHEALHNHYTQKSLSLSPGK

For one test, the target named is T1, Activin A (UniProt P08476 311-426).
T1 sequence (looked up): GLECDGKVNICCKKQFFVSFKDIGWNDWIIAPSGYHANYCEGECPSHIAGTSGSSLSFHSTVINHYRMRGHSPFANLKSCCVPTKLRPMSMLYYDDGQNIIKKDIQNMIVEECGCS
Put plainly: cell-based or functional assay.
On to B1, for which the “IC50 (ng/mL), A-204 reporter gene assay, conditioned media” value (“IC50 (ng/mL), A-204 reporter gene assay” for short) was determined as 105 ng/mL.
As to B2, the “IC50 (ng/mL), A-204 reporter gene assay” value is 100 ng/mL.
For B3, the “IC50 (ng/mL), A-204 reporter gene assay” value stood at 325 ng/mL.
For the molecule B4, the “IC50 (ng/mL), A-204 reporter gene assay” value amounted to 201 ng/mL.
Regarding B5, the “IC50 (ng/mL), A-204 reporter gene assay” value was 43 ng/mL.

For a further test, the target named is T2, GDF-11 (UniProt O95390 299-407).
T2 sequence (looked up): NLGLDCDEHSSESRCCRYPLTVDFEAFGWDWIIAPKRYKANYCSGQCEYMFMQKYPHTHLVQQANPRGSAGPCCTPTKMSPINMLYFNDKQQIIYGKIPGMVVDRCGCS
Put plainly: cell-based or functional assay.
Take B1: the “IC50 (ng/mL), A-204 reporter gene assay” value came to 69 ng/mL.
Turning to B2, the “IC50 (ng/mL), A-204 reporter gene assay” value was 71 ng/mL.
Turning to B3, the “IC50 (ng/mL), A-204 reporter gene assay” value was 121 ng/mL.
For B4, the “IC50 (ng/mL), A-204 reporter gene assay” value was 183 ng/mL.
The same measure, in the same setting: the value for B5 was 60 ng/mL.

A further test has as its target T1, Activin A. Put plainly: cell-based or functional assay. The source holds these as a separate data set.
On to B4, for which the “IC50 (ng/mL), A-204 reporter gene assay” value is 44 ng/mL.
Regarding B6, the “IC50 (ng/mL), A-204 reporter gene assay” value came to 32 ng/mL.
As for B7, the “IC50 (ng/mL), A-204 reporter gene assay” value came to 158 ng/mL.

The target in a further test is T2, GDF-11. The test is described as follows: cell-based or functional assay. The source holds these as a separate data set.
For B4, the “IC50 (ng/mL), A-204 reporter gene assay” value turned out to be 120 ng/mL.
On the same count and under the same terms, the value for B6 was 87 ng/mL; that for B7 was 130 ng/mL.

A further test has as its target T3, GDF8 (UniProt O14793 267-375).
T3 construct: also called myostatin; Growth and Differentiation Factor-8
T3 sequence (looked up): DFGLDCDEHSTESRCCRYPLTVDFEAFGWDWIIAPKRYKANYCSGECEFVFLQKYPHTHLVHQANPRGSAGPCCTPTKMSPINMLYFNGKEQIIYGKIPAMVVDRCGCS
Put plainly: BiaCore SPR; ActRIIB-Fc captured by anti-hFc antibody, ligand injected. As to the method:
The ActRIIB-Fc variants or wild-type protein were captured onto the system using an anti-hFc antibody. Ligands were injected and flowed over the captured receptor proteins.
In general terms: In SPR one partner is held on a chip, and binding of the other changes the refractive index at the surface.
As to B8, the kon (as a rule, the rate constant with which the complex forms) is 369000 M⁻¹ s⁻¹.
